{"source": "patent US20240209061A1", "about": "“FUSION PROTEINS AND USES THEREOF” (Pfizer Inc., priority 2020, published 2024)", "key": {"[1]": {"assay": "Thermal forced aggregation (SEC)", "assay_type": "physicochemical", "conditions": "Table 11, 24 hours, PBS", "procedure": "To assess the aggregation propensity of variant CD80-Fc fusion proteins, 1 mg/ml of CD80-Fc fusion protein was incubated in PBS at increasing temperatures for 24 hours. The samples were analyzed by SEC on an Agilent 1100 (Agilent Technologies, Germany) HPLC system using a YMC-Pack Diol-200 (YMC, Germany) analytical size exclusion chromatography column and PBS supplemented to 400 mM NaCl as running buffer. % aggregation was calculated from the loss of intact peak area. […] ND=Not Determined."}, "[2]": {"test_system": "human peripheral blood mononuclear cells (PBMCs)", "assay": "Human PBMC IL-2 production assay with plate-bound anti-CD3", "assay_type": "cell-based", "conditions": "average of 5 PBMC donors; 1 μg/ml anti-CD3; 48 hours", "procedure": "The ability of the variant CD80-Fc fusion proteins to promote IL-2 production in the context of anti-CD3 (to stimulate T cell receptor signaling) in human peripheral blood mononuclear cells (PBMCs) was tested. To bind anti-CD3 antibody on the plate, the anti-human-CD3 (clone HIT3a, BD Pharmingen) was incubated in 96-well plates at 4° C. overnight at 1 μg/ml unless otherwise noted. Human PBMCs were isolated from freshly collected human whole blood using Ficoll-Paque Plus. Human PBMCs (100,000 per well) were incubated with plate-bound anti-CD3 and the indicated concentrations of soluble CD80-Fc fusion protein in RPMI+10% HI-FBS, pen/strep, sodium pyruvate and non-essential amino acids. After 48 hours incubation, supernatants were collected and IL-2 measured by the Quantikine human IL-2 ELISA kit from R&D.\nAdditional CD80-Fc fusion proteins were tested in the same PBMC assay, at the concentration of anti-human-CD3 (clone HIT3a, BD Pharmingen) noted."}, "[3]": {"test_system": "peripheral blood mononuclear cells (PBMC)", "assay": "RESTORE cytokine release assay in absence of TCR stimulation", "assay_type": "cell-based, human", "set-up": "IFNγ: unit not given beside the values", "conditions": "Table 20", "procedure": "The ability of variant CD80-Fc fusion proteins to promote cytokine release in the absence of TCR stimulation was assessed in the RESTORE (RESetting T cells to Original Reactivity) assay (Römer et al, Blood, 2011). Freshly isolated peripheral blood mononuclear cells (PBMC) from whole blood of several healthy donors were cultured for 48 hours at […] within RPMI1640 media supplemented with 10% autologous plasma, 10 mM HEPES, 1× GlutaMAX, 1× PenStrep, beta2-mercaptoethanol, NEAA and sodium pyruvate. Following the 48-hour incubation, PBMC were pelleted and resuspended at a final concentration of 10^6/ml with indicated soluble drug. Treatment was allowed for 48 hours then supernatant was harvested and assessed in IL-2 and IFNγ ELISA according to manufacturer's protocol (BioLegend).\nPositive controls included CD28 superagonist anti-CD28 clone TGN1412 as IgG1 and IgG4 isotypes and anti-CD3. […] Values shown are the average of 3 technical replicates. D=Donor."}, "[4]": {"test_system": "CT26 murine colorectal carcinoma tumor cells", "assay": "CT26 murine colorectal carcinoma model", "assay_type": "in vivo, mouse", "conditions": "for Day 10 tumor volume: Days 0 and 3; for % tumor growth inhibition: Day 10", "procedure": "CT26 murine colorectal carcinoma tumor cells (1×10^6) were subcutaneously implanted in the hind flank of female Balb/c mice. When tumors reached ˜100 mm3 (Day 8), mice were randomized. PBS vehicle control or variant CD80-Fc fusion proteins were dosed intravenously at 0.1 and 1.0 mg/kg on Days 0 and 3. Tumor volume was determined by caliper measurements obtained in 2 dimensions and calculated as width^2×length/2. Error bars are depicted as ±SEM.\nIFNγ ELIspot was used to measure tumor-reactive T cells in the spleen in mice treated with CD80-Fc fusion proteins at a 1 mg/kg dose.\nCytotoxic CD8^+ T cells are responsible for killing cancer cells and the measurement of CD8^+ T cells that have infiltrated tumors commonly correlates with efficacy for immune-oncology therapies. For all in vivo studies, tumors were collected ˜1 week after the first dose and dissociated by mincing, followed by incubation in an enzymatic digestion cocktail and homogenization. The resulting cell suspension was filtered and washed, and single cells were stained with antibodies to CD45, CD8, and a viability dye to detect tumor-infiltrating lymphocytes (TILs) by flow cytometry. Data were acquired on a BD LSRFortessa flow cytometer or a Cytek Aurora spectral flow cytometer. Table 31 and FIG. 18 show the amount of tumor-infiltrating CD8+ T cells expressed as a percentage of total immune cells (CD45+). Each value is the average of n=4 mice per group. Treatment with all variant CD80-Fc fusion proteins led to increase in CD8+ TILs in various tumor models."}, "[5]": {"test_system": "B16F10 murine melanoma cells", "assay": "B16F10 melanoma model, combination with αPD1 antibody", "assay_type": "in vivo, mouse", "conditions": "CD80-D90Q-E23C-A26C-Fc 3 mg/kg and/or αPD1 Ab 10 mg/kg", "procedure": "B16F10 murine melanoma cells (0.5 million) were subcutaneously implanted in the hind flank of female C57BL/6J mice. When tumors reached ˜100 mm3, mice were randomized and dosed with PBS vehicle control, 3 mg/kg CD80-D90Q-E23C-A26C-Fc, and or 10 mg/kg murine αPD1 antibody. CD80-D90Q-E23C-A26C-Fc was dosed on Days 0 and 3, αPD1 antibody was dosed on Days 0, 3 and 6. Tumor volume was determined by caliper measurements obtained in 2 dimensions and calculated as width^2×length/2. Error bars are depicted as ±SEM"}, "[6]": {"assay": "Pharmacokinetics in huFcRn transgenic mice", "conditions": "0.1 mg/kg IV", "method": "PK of CD80-Fc fusion proteins was also assessed in transgenic mice expressing the human neonatal Fc receptor (huFcRn) a-chain transgene under the control of its natural human promoter. Female mice were dosed intravenously with CD80-Fc fusion proteins at 0.1 mg/kg, and blood was collected at the timepoints indicated on the graph. Levels of CD80-Fc in mouse plasma were measured as described above."}}, "data": [{"substance": "CD80-D90Q-E23C-A26C-Fc: disulfide stabilized variant CD80-Fc fusion protein (D90Q, E23C, A26C)", "values": [{"measurement": "% aggregation", "setting": "[1]; 40° C.", "value": 0.0, "unit": "%"}, {"measurement": "% aggregation", "setting": "[1]; 45.3° C.", "value": 0.1, "unit": "%"}, {"measurement": "% aggregation", "setting": "[1]; 49.4° C.", "value": 0.1, "unit": "%"}, {"measurement": "% aggregation", "setting": "[1]; 54.9° C.", "value": 0.5, "unit": "%"}, {"measurement": "% aggregation", "setting": "[1]; 59.1° C.", "value": 26.2, "unit": "%"}, {"measurement": "% aggregation", "setting": "[1]; 64° C.", "value": 68.8, "unit": "%"}, {"measurement": "EC50", "setting": "[2]", "value": "0.0242 ± 0.01", "unit": "µM"}, {"measurement": "IFNγ", "setting": "[3]; D222, 1 μg/ml", "value": 4.0}, {"measurement": "IL-2", "setting": "[3]; D222, 1 μg/ml", "value": 7.0}, {"measurement": "IFNγ", "setting": "[3]; D222, 10 μg/ml", "value": 4.7}, {"measurement": "IL-2", "setting": "[3]; D222, 10 μg/ml", "value": 11.0}, {"measurement": "IFNγ", "setting": "[3]; D281, 1 μg/ml", "value": 5.0}, {"measurement": "IL-2", "setting": "[3]; D281, 1 μg/ml", "value": 2.0}, {"measurement": "IFNγ", "setting": "[3]; D281, 10 μg/ml", "value": 6.3}, {"measurement": "IL-2", "setting": "[3]; D281, 10 μg/ml", "value": 2.0}, {"measurement": "IFNγ", "setting": "[3]; D462, 1 μg/ml", "value": 7.3}, {"measurement": "IL-2", "setting": "[3]; D462, 1 μg/ml", "value": 1.7}, {"measurement": "IFNγ", "setting": "[3]; D462, 10 μg/ml", "value": 6.0}, {"measurement": "IL-2", "setting": "[3]; D462, 10 μg/ml", "value": 2.0}, {"measurement": "IFNγ", "setting": "[3]; D547, 1 μg/ml", "value": 3.3}, {"measurement": "IL-2", "setting": "[3]; D547, 1 μg/ml", "value": 4.3}, {"measurement": "IFNγ", "setting": "[3]; D547, 10 μg/ml", "value": 5.0}, {"measurement": "IL-2", "setting": "[3]; D547, 10 μg/ml", "value": 12.0}, {"measurement": "Number of tumor regressions", "setting": "[4]; 0.1 mg/kg", "value": "2/10"}, {"measurement": "Day 10 tumor volume", "setting": "[4]; 0.1 mg/kg IV", "value": 388.9, "unit": "mm^3"}, {"measurement": "% tumor growth inhibition", "setting": "[4]; 0.1 mg/kg", "value": 67.53, "unit": "%"}, {"measurement": "Number of tumor regressions", "setting": "[4]; 1 mg/kg", "value": "9/10"}, {"measurement": "Day 10 tumor volume", "setting": "[4]; 1 mg/kg IV", "value": 197.8, "unit": "mm^3"}, {"measurement": "% tumor growth inhibition", "setting": "[4]; 1 mg/kg", "value": 83.49, "unit": "%"}, {"measurement": "# IFNγ-producing spots (tumor-reactive T cells in spleen)", "setting": "[4]; 1 mg/kg, average of n = 4 mice", "value": 523.1875}, {"measurement": "Day 10 tumor volume", "setting": "[5]", "value": 1208.8, "unit": "mm^3"}, {"measurement": "% tumor growth inhibition", "setting": "[5]; Day 10", "value": 26.3, "unit": "%"}, {"measurement": "AUC", "setting": "[6]", "value": 88, "unit": "µg·h/mL"}, {"measurement": "CL", "setting": "[6]", "value": 15.8, "unit": "mL/day/kg"}, {"measurement": "T1/2", "setting": "[6]", "value": 148, "unit": "h"}, {"measurement": "Vdss", "setting": "[6]", "value": 0.131, "unit": "L/kg"}, {"measurement": "Cmax", "setting": "[6]; average of 3 animals", "value": 1.4, "unit": "µg/mL"}]}]}
